These results are taken from article PMC13138755, “Potential Rad54 separation of function mutation highlights unique roles during homologous recombination”.

What all share (conditions): protein: recombinant; tags: GFP-GST (N-term); label: Atto647N 5' on strand 1; blunt
Data set [1] concerns the target T1, Rad54 D525S/D527S/S816D/S817D (Saccharomyces cerevisiae, UniProt P32863 1-898, D525S;D527S;S816D;S817D).
T1 sequence: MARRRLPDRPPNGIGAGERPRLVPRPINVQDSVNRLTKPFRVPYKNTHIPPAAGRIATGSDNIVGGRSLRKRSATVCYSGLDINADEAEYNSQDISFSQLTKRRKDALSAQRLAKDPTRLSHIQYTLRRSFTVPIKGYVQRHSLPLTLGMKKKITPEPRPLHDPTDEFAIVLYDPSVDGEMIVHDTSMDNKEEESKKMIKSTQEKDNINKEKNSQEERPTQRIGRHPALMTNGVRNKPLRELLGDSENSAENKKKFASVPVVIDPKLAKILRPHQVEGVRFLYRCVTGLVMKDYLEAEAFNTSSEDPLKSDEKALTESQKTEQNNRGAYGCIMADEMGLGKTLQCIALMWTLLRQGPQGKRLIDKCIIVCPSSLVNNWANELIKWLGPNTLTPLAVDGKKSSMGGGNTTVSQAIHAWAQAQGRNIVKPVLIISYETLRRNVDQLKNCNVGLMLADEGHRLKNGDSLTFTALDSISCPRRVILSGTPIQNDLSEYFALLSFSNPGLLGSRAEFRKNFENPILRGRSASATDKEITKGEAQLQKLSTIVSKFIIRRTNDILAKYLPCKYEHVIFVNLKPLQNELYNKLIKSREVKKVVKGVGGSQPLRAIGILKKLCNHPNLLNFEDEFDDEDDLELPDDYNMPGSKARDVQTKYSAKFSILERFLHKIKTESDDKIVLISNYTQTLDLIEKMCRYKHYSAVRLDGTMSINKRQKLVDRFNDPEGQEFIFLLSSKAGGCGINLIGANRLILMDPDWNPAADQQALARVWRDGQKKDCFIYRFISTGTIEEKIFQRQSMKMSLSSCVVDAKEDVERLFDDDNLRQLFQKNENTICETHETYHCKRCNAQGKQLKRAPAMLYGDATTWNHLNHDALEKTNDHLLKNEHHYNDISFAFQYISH
Briefly: EMSA; apparent Kd; Hill fit; 3 mM Mg2+; EMSA: 35 mM Tris-Cl pH 7.5, 3 mM MgCl2, 50 mM KCl, 1 mM DTT, 10% glycerol, 10 nM DNA, 30 C, 5 min, 8% native PAGE in 0.5x TBE; DNA curtains: HR buffer (composition not given), 10 nM GFP-Rad54, flow 0.2 mL/min.

In another data set the target is T2, Rad54 S816D/S817D (Saccharomyces cerevisiae, UniProt P32863 1-898, S816D;S817D).
T2 sequence: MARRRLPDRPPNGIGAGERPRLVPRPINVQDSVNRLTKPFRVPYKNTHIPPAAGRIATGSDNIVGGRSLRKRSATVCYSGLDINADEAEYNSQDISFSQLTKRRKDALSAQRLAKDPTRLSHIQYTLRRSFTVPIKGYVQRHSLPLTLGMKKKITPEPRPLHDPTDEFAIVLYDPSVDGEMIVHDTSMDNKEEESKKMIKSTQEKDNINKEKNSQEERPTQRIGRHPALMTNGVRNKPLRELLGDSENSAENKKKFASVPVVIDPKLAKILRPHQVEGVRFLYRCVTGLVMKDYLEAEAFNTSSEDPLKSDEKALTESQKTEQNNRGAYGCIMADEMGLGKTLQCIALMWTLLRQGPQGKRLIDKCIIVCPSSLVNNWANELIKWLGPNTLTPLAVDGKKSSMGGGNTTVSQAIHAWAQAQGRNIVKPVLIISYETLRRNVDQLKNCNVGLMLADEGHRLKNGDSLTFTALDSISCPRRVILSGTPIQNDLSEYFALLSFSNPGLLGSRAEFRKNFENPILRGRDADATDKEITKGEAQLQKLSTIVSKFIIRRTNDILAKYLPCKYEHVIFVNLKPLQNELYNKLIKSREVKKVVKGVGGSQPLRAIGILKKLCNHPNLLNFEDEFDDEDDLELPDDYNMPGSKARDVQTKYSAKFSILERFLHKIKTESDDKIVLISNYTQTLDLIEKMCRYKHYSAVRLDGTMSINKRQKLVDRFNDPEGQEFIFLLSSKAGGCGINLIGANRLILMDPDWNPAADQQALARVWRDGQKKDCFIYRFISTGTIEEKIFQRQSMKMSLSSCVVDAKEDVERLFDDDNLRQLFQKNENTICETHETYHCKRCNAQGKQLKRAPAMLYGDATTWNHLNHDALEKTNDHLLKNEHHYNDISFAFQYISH
Briefly: EMSA; apparent Kd; Hill fit; 3 mM Mg2+; p = 0.008 vs WT; EMSA: 35 mM Tris-Cl pH 7.5, 3 mM MgCl2, 50 mM KCl, 1 mM DTT, 10% glycerol, 10 nM DNA, 30 C, 5 min, 8% native PAGE in 0.5x TBE; DNA curtains: HR buffer (composition not given), 10 nM GFP-Rad54, flow 0.2 mL/min.

Another data set has as its target T3, Rad54 S816A/S817A (Saccharomyces cerevisiae, UniProt P32863 1-898, S816A;S817A).
T3 sequence: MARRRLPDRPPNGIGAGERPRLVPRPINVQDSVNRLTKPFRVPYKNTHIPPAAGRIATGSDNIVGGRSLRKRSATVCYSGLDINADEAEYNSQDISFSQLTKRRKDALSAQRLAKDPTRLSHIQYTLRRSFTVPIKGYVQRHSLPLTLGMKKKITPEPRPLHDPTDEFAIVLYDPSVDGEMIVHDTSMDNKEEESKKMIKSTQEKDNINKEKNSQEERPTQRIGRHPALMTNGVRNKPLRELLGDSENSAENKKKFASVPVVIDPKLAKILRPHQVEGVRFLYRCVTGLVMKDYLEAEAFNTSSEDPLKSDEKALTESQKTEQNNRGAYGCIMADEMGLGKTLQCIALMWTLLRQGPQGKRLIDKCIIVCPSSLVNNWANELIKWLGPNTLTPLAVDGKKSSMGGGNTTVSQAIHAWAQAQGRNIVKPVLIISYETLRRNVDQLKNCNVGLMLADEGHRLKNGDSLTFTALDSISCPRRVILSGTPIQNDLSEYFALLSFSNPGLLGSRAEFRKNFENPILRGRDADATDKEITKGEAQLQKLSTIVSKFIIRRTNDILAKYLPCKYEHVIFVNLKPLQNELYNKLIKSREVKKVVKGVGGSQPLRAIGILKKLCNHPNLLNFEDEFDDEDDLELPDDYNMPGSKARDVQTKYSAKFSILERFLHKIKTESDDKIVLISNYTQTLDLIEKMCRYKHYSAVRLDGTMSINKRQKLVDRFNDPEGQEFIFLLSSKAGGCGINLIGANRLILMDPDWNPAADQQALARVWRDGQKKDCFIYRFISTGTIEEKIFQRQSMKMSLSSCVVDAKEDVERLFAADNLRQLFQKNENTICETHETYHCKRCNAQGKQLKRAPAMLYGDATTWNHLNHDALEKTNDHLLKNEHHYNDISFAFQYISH
Briefly: EMSA; 3 mM Mg2+; Kd slightly above WT, not significant; value only in figure; EMSA: 35 mM Tris-Cl pH 7.5, 3 mM MgCl2, 50 mM KCl, 1 mM DTT, 10% glycerol, 10 nM DNA, 30 C, 5 min, 8% native PAGE in 0.5x TBE; DNA curtains: HR buffer (composition not given), 10 nM GFP-Rad54, flow 0.2 mL/min.

B1: 90 bp dsDNA (90-mer) (dsDNA)
DNA 1: GATGTTCTGCTGGATATGCACTTTTCCGGGCTGACGTACACCGTGCTCAGCCTGTTTTTCAGCGATCCGGATATGCATCCGCTGGATTTC
DNA 2: GAAATCCAGCGGATGCATATCCGGATCGCTGAAAAACAGGCTGAGCACGGTGTACGTCAGCCCGGAAAAGTGCATATCCAGCAGAACATC
In the case of B1, the Kd in data set [1] was roughly 18 nM; in the data set with Rad54 S816D/S817D it was 41 nM. Moreover, the binding result in the data set with Rad54 S816A/S817A is listed as “binds”.
